Reference: PMC3149827 (2011)

Experiments:
[1] = biological target: Soluble expressed urokinase plasminogen activator receptor; assay: SPR
[2] = biological target: gC1qR (Homo sapiens) (UniProt Q07021); settings: cited from earlier work
[3] = biological target: T1, cytokeratin 1 (Homo sapiens, UniProt P04264); assay: SPR
T1 chain: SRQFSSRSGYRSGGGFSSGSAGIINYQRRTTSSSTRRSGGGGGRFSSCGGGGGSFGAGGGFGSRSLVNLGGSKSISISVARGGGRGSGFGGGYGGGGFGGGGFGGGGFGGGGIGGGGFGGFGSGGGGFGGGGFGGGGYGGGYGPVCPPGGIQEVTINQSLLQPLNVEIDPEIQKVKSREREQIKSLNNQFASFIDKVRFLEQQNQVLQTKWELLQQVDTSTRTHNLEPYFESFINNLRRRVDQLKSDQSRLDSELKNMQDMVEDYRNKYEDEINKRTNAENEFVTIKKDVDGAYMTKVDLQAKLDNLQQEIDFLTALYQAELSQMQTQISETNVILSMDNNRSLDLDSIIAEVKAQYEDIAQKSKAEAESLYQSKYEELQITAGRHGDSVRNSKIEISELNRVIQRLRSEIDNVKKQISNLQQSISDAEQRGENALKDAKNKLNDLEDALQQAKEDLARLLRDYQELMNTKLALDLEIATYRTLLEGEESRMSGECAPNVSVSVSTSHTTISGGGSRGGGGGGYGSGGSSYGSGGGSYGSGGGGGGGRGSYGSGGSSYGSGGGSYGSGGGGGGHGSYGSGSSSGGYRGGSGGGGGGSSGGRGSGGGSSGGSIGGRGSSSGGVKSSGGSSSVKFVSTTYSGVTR

Chain of gC1qR (Homo sapiens) (Q07021 74-282): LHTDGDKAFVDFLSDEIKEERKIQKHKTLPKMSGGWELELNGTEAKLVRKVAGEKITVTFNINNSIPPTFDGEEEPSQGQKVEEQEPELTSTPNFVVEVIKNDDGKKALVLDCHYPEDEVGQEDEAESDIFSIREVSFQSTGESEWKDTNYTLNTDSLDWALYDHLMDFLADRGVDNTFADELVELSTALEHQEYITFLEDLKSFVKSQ

Single-chain urokinase-type plasminogen activator (ligand)
Kd [1]: 0.1 to 1 nM

cleaved high-molecular-weight kininogen (HKa) (from UniProt P01042)
Kd [2]: 9 nM

B1: high-molecular-weight kininogen (HK/HKa) (protein)
chain: QESQSEEIDCNDKDLFKAVDAALKKYNSQNQSNNQFVLYRITEATKTVGSDTFYSFKYEIKEGDCPVQSGKTWQDCEYKDAAKAATGECTATVGKRSSTKFSVATQTCQITPAEGPVVTAQYDCLGCVHPISTQSPDLEPILRHGIQYFNNNTQHSSLFMLNEVKRAQRQVVAGLNFRITYSIVQTNCSKENFLFLTPDCKSLWNGDTGECTDNAYIDIQLRIASFSQNCDIYPGKDFVQPPTKICVGCPRDIPTNSPELEETLTHTITKLNAENNATFYFKIDNVKKARVQVVAGKKYFIDFVARETTCSKESNEELTESCETKKLGQSLDCNAEVYVVPWEKKIYPTVNCQPLGMISLMKRPPGFSPFRSSRIGEIKEETTVSPPHTSMAPAQDEERDSGKEQGHTRRHDWGHEKQRKHNLGHGHKHERDQGHGHQRGHGLGHGHEQQHGLGHGHKFKLDDDLEHQGGHVLDHGHKHKHGHGHGKHKNKGKKNGKHNGWKTEHLASSSEDSTTPSAQTQEKTEGPTPIPSLAKPGVTVTFSDFQDSDLIATMMPPISPAPIQSDDDWIPDIQIDPNGLSFNPISDFPDTTSPKCPGRPWKSVSEINPTTQMKESYYFDLTDGLS
modifications: Zn2+
Kd [3]: ~10 nM
